This note sets out measurements from PMC8409457, “An evolution-inspired strategy to design disulfide-rich peptides tolerant to extensive sequence manipulation†” (Chemical Science, 2021).

Bridges are numbered along the chain shown (N, C = ends). Where no end group is shown, it is not given here.

Assay [1] has as its target T1, streptavidin (UniProt P22629 25-183).
T1 construct: streptavidin, model target; Source may be told in the ESI
As to the kind of experiment: SPR; binding of peptide to streptavidin. The note with it: both partners purified. In general terms: Surface plasmon resonance follows binding to a sensor surface in real time, without labels.

Assay [2] deals with T2, MDM2 (UniProt Q00987 1-491).
T2 construct: MDM2, the protein target of pb13
As to the kind of experiment: fluorescence polarisation; competition assay on MDM2 (reported assay, ref. 17); peptides purified by HPLC to >95%; tracer not named. The note with it: both partners purified.

T1 sequence (P22629 25-183): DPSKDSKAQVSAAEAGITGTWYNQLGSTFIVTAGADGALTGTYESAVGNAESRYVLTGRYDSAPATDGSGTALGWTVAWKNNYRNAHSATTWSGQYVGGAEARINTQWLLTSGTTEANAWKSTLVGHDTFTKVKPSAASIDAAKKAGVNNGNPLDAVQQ
T2 sequence (Q00987 whole entry): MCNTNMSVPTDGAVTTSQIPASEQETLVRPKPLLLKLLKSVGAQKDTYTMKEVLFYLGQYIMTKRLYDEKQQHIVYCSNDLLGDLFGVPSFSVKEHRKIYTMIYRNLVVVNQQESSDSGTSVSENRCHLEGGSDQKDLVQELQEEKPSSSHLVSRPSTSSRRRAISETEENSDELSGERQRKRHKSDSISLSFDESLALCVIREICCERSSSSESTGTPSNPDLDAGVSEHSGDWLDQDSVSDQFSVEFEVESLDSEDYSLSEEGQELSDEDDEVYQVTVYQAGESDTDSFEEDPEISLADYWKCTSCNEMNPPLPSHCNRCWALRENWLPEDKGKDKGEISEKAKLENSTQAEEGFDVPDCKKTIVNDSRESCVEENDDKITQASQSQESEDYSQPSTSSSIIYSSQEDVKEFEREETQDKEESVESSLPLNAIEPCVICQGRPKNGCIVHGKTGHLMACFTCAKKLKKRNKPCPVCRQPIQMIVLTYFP

B1: tricyclic peptide 17 (peptide)
chain: GCGSDEACFCPCSHPENCPMAQHC
modifications: disulfide (positions not given here)
With B1, in assay [1], the Kd (as a rule, the concentration at which binding is half-saturated) came to 38 nM.

B2: oxidized peptide 15 (peptide)
chain: GCEKATESESPCPCIFPELCPWIVCC
modifications: disulfide 12-25, 14-20, 2-26
With B2, the Ki – broadly, a dissociation constant, usually derived from enzyme kinetics or from competition with a known ligand – in assay [2] turned out to be 89 nM.
